Test results: IntAct's records for PubMed 29611543

B1: Triggering receptor expressed on myeloid cells 2 (Homo sapiens), Q9NZC2 (parent)
chain: MEPLRLLILLFVTELSGAHNTTVFQGVAGQSLQVSCPYDSMKHWGRRKAWCRQLGEKGPCQRVVSTHNLWLLSFLRRWNGSTAITDDTLGGTLTITLRNLQPHDAGLYQCQSLHGSEADTLRKVLVEVLADPLDHRDAGDLWFPGESESFEDAHVEHSISRSLLEGEIPFPPTSILLLLACIFLIKILAASALWAAAWHGQKPGTHPPSELDCGHDPGYQLQTLPGLRDT

Variants of: B1
Conditions: with psn1_human PSEN1, P49768

Effect of a mutation on the interaction, with no effect:
MEPLRLLILLFVTELSGAHNTTVFQGVAGQSLQVSCPYDSMKHWGRRKAWCRQLGEKGPCQRVVSMHNLWLLSFLRRWNGSTAITDDTLGGTLTITLRNLQPHDAGLYQCQSLHGSEADTLRKVLVEVLADPLDHRDAGDLWFPGESESFEDAHVEHSISRSLLEGEIPFPPTSILLLLACIFLIKILAASALWAAAWHGQKPGTHPPSELDCGHDPGYQLQTLPGLRDT [T66M]
MEPLRLLILLFVTELSGAHNTTVFQGVAGQSLQVSCPYDSMKHWGRRKAWCRQLGEKGPCQRVVSTHNLWLLSFLRRWNGSTAITDDTLGGTLTIKLRNLQPHDAGLYQCQSLHGSEADTLRKVLVEVLADPLDHRDAGDLWFPGESESFEDAHVEHSISRSLLEGEIPFPPTSILLLLACIFLIKILAASALWAAAWHGQKPGTHPPSELDCGHDPGYQLQTLPGLRDT [T96K]
MEPLRLLILLFVTELSGAHNTTVFQGVAGQSLQVSCPYDSMKHWGRHKAWCRQLGEKGPCQRVVSTHNLWLLSFLRRWNGSTAITDDTLGGTLTITLRNLQPHDAGLYQCQSLHGSEADTLRKVLVEVLADPLDHRDAGDLWFPGESESFEDAHVEHSISRSLLEGEIPFPPTSILLLLACIFLIKILAASALWAAAWHGQKPGTHPPSELDCGHDPGYQLQTLPGLRDT [R47H]
